# Measurements from article PMC9482650, “Quantitative fragmentomics allow affinity mapping of interactomes” (Nature Communications, 2022).
# T1: MPDZ_5, O75970
# T1 sequence (O75970 695-796, limits assumed, looked up): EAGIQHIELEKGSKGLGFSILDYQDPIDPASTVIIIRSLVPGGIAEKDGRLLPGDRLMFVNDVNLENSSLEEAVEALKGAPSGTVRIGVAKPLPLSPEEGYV
# T2: LIN7A, O14910
# T2 sequence (O14910 103-200, limits assumed, looked up): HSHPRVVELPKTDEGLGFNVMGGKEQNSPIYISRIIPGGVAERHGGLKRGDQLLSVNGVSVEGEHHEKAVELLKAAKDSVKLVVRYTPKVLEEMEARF
# T3: RADIL, Q96JH8
# T3 sequence (Q96JH8 971-1071, limits assumed, looked up): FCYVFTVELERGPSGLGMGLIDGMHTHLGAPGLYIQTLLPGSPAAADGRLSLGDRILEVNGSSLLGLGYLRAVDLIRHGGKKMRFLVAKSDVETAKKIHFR
# T4: DFNB31_2, Q9P202
# T4 sequence (Q9P202 274-371, limits assumed, looked up): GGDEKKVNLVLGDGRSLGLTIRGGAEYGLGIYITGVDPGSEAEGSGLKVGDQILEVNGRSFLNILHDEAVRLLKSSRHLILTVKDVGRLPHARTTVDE
# T5: DFNB31_1, Q9P202
# T5 sequence (Q9P202 135-233, limits assumed, looked up): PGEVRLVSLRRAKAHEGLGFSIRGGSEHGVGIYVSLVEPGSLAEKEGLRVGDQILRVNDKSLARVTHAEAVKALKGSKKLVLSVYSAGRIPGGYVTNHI
# T6: PARD3B_1, Q8TEW8
# T6 sequence (Q8TEW8 196-299, limits assumed, looked up): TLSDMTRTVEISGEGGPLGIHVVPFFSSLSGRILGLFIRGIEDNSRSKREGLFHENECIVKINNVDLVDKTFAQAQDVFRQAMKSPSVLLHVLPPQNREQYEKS
# T7: NHERF3_1, Q5T2W1
# T7 sequence (Q5T2W1 4-100, limits assumed, looked up): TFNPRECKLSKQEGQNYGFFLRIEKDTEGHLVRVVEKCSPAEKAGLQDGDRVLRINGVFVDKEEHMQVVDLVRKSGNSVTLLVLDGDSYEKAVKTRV
# T8: DLG3_1, Q92796
# T8 sequence (Q92796 125-227, limits assumed, looked up): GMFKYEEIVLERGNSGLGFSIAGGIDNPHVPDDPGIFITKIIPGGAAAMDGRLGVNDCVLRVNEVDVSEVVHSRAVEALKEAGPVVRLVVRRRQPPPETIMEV
# T9: MPDZ_10, O75970
# T9 sequence (O75970 1624-1722, limits assumed, looked up): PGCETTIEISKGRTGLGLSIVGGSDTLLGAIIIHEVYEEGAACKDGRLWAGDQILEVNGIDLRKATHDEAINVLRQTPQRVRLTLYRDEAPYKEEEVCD
# T10: FRMPD1, Q5SYB0
# T10 sequence (Q5SYB0 52-145, limits assumed, looked up): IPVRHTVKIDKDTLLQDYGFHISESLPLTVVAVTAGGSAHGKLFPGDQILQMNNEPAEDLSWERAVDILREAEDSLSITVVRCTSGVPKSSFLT
# Assays:
# Experiment in all cases: holdup assay
# Parameters in all cases: key: below the threshold = too weak to quantify, mostly under pKd 3.1 to 4
# MPDZ_5, O75970 = molecular target: T1, MPDZ_5, O75970
# FRMPD2_3, Q68DX3 = molecular target: FRMPD2_3, Q68DX3
# LIN7A, O14910 = molecular target: T2, LIN7A, O14910
# RADIL, Q96JH8 = molecular target: T3, RADIL, Q96JH8
# DFNB31_2, Q9P202 = molecular target: T4, DFNB31_2, Q9P202
# GRIP2_3, Q9C0E4 = molecular target: GRIP2_3, Q9C0E4
# DFNB31_1, Q9P202 = molecular target: T5, DFNB31_1, Q9P202
# SCRIB_2, Q14160 = molecular target: SCRIB_2, Q14160
# CASK, O14936 = molecular target: CASK, O14936
# Inadl_5, Q8NI35 = molecular target: Inadl_5, Q8NI35
# MAGI2_2, Q86UL8 = molecular target: MAGI2_2, Q86UL8
# GIPC2, Q8TF65 = molecular target: GIPC2, Q8TF65
# PARD3B_1, Q8TEW8 = molecular target: T6, PARD3B_1, Q8TEW8
# SCRIB_1, Q14160 = molecular target: SCRIB_1, Q14160
# IL16_3, Q14005 = molecular target: IL16_3, Q14005
# PDLIM1, O00151 = molecular target: PDLIM1, O00151
# Inadl_1, Q8NI35 = molecular target: Inadl_1, Q8NI35
# GRID2IP_1, A4D2P6 = molecular target: GRID2IP_1, A4D2P6
# MAGI1_1, Q96QZ7 = molecular target: MAGI1_1, Q96QZ7
# MAGI2_3, Q86UL8 = molecular target: MAGI2_3, Q86UL8
# Inadl_10, Q8NI35 = molecular target: Inadl_10, Q8NI35
# NHERF3_1, Q5T2W1 = molecular target: T7, NHERF3_1, Q5T2W1
# DLG3_1, Q92796 = molecular target: T8, DLG3_1, Q92796
# GRASP, Q7Z6J2 = molecular target: GRASP, Q7Z6J2
# DLG2_3, Q15700 = molecular target: DLG2_3, Q15700
# MPDZ_10, O75970 = molecular target: T9, MPDZ_10, O75970
# FRMPD1, Q5SYB0 = molecular target: T10, FRMPD1, Q5SYB0
# TJP2_1, Q9UDY2 = molecular target: TJP2_1, Q9UDY2
# [1] = plain residues with an end cap or a label only (N-terminal biotin on a linker: ahx)
# [2] = plain residues with an end cap or a label only (N-terminal biotin on a linker: ttds)
# SCRIB_2, Q14160, sequence (Q14160 857-960): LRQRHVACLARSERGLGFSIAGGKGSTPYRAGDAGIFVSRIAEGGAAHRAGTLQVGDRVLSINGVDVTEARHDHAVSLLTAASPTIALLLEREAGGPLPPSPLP
# MAGI1_1, Q96QZ7, sequence (Q96QZ7 1-106): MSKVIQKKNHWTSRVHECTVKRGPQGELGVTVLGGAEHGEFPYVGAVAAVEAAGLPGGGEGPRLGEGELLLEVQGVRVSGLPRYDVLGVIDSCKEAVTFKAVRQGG
# GRASP, Q7Z6J2, sequence (Q7Z6J2 96-193): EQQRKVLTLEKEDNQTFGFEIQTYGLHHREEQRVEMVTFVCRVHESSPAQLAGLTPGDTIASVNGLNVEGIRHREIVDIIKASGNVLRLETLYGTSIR
# Inadl_5, Q8NI35, sequence (Q8NI35 673-780): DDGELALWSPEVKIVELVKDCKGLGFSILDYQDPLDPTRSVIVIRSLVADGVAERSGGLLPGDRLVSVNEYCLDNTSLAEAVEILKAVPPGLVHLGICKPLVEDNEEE
# SCRIB_1, Q14160, sequence (Q14160 718-814): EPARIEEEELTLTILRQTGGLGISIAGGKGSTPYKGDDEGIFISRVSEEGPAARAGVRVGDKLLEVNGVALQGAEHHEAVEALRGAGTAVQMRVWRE
# GRID2IP_1, A4D2P6, sequence (A4D2P6 1-87): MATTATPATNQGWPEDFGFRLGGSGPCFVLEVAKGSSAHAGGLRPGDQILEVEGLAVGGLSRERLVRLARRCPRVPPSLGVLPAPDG
# TJP2_1, Q9UDY2, sequence (Q9UDY2 24-128): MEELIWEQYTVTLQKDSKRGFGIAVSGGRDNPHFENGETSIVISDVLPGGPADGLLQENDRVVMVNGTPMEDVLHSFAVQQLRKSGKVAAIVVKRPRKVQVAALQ
# MAGI2_3, Q86UL8, sequence (Q86UL8 600-682): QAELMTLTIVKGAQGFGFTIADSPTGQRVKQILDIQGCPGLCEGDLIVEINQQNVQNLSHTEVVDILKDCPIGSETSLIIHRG
# PDLIM1, O00151, sequence (O00151 1-87): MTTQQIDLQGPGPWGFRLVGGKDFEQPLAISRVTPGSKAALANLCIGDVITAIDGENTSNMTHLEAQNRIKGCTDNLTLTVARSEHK
# GRIP2_3, Q9C0E4, sequence (Q9C0E4 238-339): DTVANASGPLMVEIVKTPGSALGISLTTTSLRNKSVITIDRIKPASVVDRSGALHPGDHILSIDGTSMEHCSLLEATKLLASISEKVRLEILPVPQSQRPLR
# FRMPD2_3, Q68DX3, sequence (Q68DX3 1073-1166): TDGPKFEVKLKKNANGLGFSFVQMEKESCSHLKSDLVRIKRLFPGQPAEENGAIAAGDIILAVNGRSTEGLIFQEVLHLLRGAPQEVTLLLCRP
# MAGI2_2, Q86UL8, sequence (Q86UL8 410-522): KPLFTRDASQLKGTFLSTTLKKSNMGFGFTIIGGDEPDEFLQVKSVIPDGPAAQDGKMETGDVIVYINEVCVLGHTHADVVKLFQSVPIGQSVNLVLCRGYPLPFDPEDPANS
# CASK, O14936, sequence (O14936 487-570): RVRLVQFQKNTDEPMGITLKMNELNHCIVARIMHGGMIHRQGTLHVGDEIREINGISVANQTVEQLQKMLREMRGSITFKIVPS
# GIPC2, Q8TF65, sequence (Q8TF65 112-203): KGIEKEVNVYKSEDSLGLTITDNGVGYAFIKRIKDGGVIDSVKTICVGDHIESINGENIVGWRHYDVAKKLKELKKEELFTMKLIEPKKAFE
# Inadl_10, Q8NI35, sequence (Q8NI35 1673-1763): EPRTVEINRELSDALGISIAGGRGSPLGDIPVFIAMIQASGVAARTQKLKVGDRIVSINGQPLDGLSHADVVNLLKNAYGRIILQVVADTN
# Inadl_1, Q8NI35, sequence (Q8NI35 113-229): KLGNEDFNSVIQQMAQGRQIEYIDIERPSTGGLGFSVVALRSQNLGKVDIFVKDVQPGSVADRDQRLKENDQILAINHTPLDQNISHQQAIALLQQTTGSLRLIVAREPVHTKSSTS
# IL16_3, Q14005, sequence (Q14005 1107-1207): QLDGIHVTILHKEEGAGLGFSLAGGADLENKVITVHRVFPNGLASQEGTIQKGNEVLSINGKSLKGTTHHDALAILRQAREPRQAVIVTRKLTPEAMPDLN
binder,measurement,setting,value
"KKNKDKEYYV [NRXN1, Q9ULB1]",pKd,"MPDZ_5, O75970; [1]",3.85
same,pKd,"FRMPD2_3, Q68DX3; [1]",4.17
same,pKd,"LIN7A, O14910; [1]",below the threshold
same,pKd,"RADIL, Q96JH8; [1]",4.2
same,pKd,"DFNB31_2, Q9P202; [1]",below the threshold
same,pKd,"GRIP2_3, Q9C0E4; [1]",below the threshold
same,pKd,"DFNB31_1, Q9P202; [1]",below the threshold
same,pKd,"SCRIB_2, Q14160; [1]",below the threshold
same,pKd,"CASK, O14936; [1]",below the threshold
same,pKd,"Inadl_5, Q8NI35; [1]",4.25
same,pKd,"MAGI2_2, Q86UL8; [1]",3.67
same,pKd,"GIPC2, Q8TF65; [1]",below the threshold
same,pKd,"PARD3B_1, Q8TEW8; [1]",below the threshold
same,pKd,"SCRIB_1, Q14160; [1]",below the threshold
same,pKd,"IL16_3, Q14005; [1]",below the threshold
same,pKd,"PDLIM1, O00151; [1]",below the threshold
same,pKd,"Inadl_1, Q8NI35; [1]",below the threshold
same,pKd,"GRID2IP_1, A4D2P6; [1]",below the threshold
same,pKd,"MAGI1_1, Q96QZ7; [1]",below the threshold
same,pKd,"MAGI2_3, Q86UL8; [1]",below the threshold
same,pKd,"Inadl_10, Q8NI35; [1]",below the threshold
same,pKd,"NHERF3_1, Q5T2W1; [1]",3.84
same,pKd,"DLG3_1, Q92796; [1]",below the threshold
same,pKd,"GRASP, Q7Z6J2; [1]",below the threshold
same,pKd,"DLG2_3, Q15700; [1]",below the threshold
same,pKd,"MPDZ_10, O75970; [1]",below the threshold
same,pKd,"FRMPD1, Q5SYB0; [1]",below the threshold
same,pKd,"TJP2_1, Q9UDY2; [1]",below the threshold
"QPGTPTRTAV [MAP2K2, P36507]",pKd,"MPDZ_5, O75970; [2]",3.49
same,pKd,"FRMPD2_3, Q68DX3; [2]",below the threshold
same,pKd,"LIN7A, O14910; [2]",below the threshold
same,pKd,"RADIL, Q96JH8; [2]",3.54
same,pKd,"DFNB31_2, Q9P202; [2]",below the threshold
same,pKd,"GRIP2_3, Q9C0E4; [2]",below the threshold
same,pKd,"DFNB31_1, Q9P202; [2]",below the threshold
same,pKd,"SCRIB_2, Q14160; [2]",below the threshold
same,pKd,"CASK, O14936; [2]",below the threshold
same,pKd,"Inadl_5, Q8NI35; [2]",below the threshold
same,pKd,"MAGI2_2, Q86UL8; [2]",3.64
same,pKd,"GIPC2, Q8TF65; [2]",below the threshold
same,pKd,"PARD3B_1, Q8TEW8; [2]",below the threshold
same,pKd,"SCRIB_1, Q14160; [2]",below the threshold
same,pKd,"IL16_3, Q14005; [2]",below the threshold
same,pKd,"PDLIM1, O00151; [2]",3.47
same,pKd,"Inadl_1, Q8NI35; [2]",below the threshold
same,pKd,"GRID2IP_1, A4D2P6; [2]",below the threshold
same,pKd,"MAGI1_1, Q96QZ7; [2]",below the threshold
same,pKd,"MAGI2_3, Q86UL8; [2]",3.6
same,pKd,"Inadl_10, Q8NI35; [2]",below the threshold
same,pKd,"NHERF3_1, Q5T2W1; [2]",below the threshold
same,pKd,"DLG3_1, Q92796; [2]",below the threshold
same,pKd,"GRASP, Q7Z6J2; [2]",4.56
same,pKd,"DLG2_3, Q15700; [2]",3.91
same,pKd,"MPDZ_10, O75970; [2]",3.59
same,pKd,"FRMPD1, Q5SYB0; [2]",below the threshold
same,pKd,"TJP2_1, Q9UDY2; [2]",3.71
